Results on 4 substances are retold here after paper PMC3081413.

As usually defined, the stoichiometry N is a count of units in the complex or per binding partner.

One assay concerns the target GST-IκBα (1–317) (UniProt P25963).
Assay [1] concerns the target Full-length hIKKβ (1–756) (human) (UniProt O14920). Description: SEC. On the technique in general: In gel filtration, larger molecules generally elute earlier.
The target in assay [2] is WT IKKβ (hIKKβ, parent of the purified dimerization mutants of Figure 5c) (human) (UniProt O14920). The assay is described as follows: AUC.
The target in assay [3] is hIKKβ KD-ULD-SDD region (1–678) (human) (UniProt O14920). Description: SEC.
Assay [4] concerns the target hIKKβ W655D/L658D, purified (human) (UniProt O14920). Description: AUC.

Chain of UniProt P25963 (P25963 whole entry): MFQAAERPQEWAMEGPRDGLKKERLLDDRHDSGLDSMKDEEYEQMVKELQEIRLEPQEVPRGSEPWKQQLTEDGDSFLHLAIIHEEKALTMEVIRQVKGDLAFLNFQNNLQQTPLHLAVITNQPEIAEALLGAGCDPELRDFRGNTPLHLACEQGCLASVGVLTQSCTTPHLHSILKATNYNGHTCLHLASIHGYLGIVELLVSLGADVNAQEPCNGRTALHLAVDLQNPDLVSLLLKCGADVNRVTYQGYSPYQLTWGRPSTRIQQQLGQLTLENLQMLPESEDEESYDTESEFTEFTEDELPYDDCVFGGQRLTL

For “Full-length hIKKβ (1–756) (from UniProt O14920 1-756) (enzyme)”, the relative Vmax of phosphorylation of full-length IκBα by IKKβ EE with GST-IκBα (1–317) was determined as 502 a.u. The substance also showed a stoichiometry N in assay [1] of 2.
In the case of “WT IKKβ (hIKKβ, parent of the purified dimerization mutants of Figure 5c) (from UniProt O14920 1-756) (enzyme)”, the stoichiometry N in assay [2] was determined as 2.
With “hIKKβ KD-ULD-SDD region (1–678) (from UniProt O14920 1-678) (domain or fragment)”, the stoichiometry N in assay [3] worked out at 2.
In the case of “hIKKβ W655D/L658D, purified (from UniProt O14920 1-756) (enzyme)”, in assay [4], the fold weaker dimerization affinity than WT worked out at 167 fold.
